IntAct's records for PubMed 31515488

B1: Vacuolar protein-sorting-associated protein 25 (Homo sapiens), Q9BRG1 (parent)
chain: MAMSFEWPWQYRFPPFFTLQPNVDTRQKQLAAWCSLVLSFCRLHKQSSMTVMEAQESPLFNNVKLQRKLPVESIQIVLEELRKKGNLEWLDKSKSSFLIMWRRPEEWGKLIYQWVSRSGQNNSVFTLYELTNGEDTEDEEFHGLDEATLLRALQALQQEHKAEIITVSDGRGVKFF
partner: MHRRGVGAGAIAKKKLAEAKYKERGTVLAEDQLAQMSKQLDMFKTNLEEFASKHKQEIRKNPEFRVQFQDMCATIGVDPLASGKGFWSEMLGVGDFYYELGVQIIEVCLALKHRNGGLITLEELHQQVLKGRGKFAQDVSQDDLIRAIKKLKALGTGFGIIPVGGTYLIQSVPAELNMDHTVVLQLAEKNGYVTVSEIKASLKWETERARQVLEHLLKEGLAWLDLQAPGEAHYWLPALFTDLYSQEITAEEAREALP
B2: Protein DBF4 homolog B (Homo sapiens), Q8NFT6 (parent)
chain: MSEPGKGDDCLELESSMAESRLRAPDLGVSRCLGKCQKNSPGARKHPFSGKSFYLDLPAGKNLQFLTGAIQQLGGVIEGFLSKEVSYIVSSRREVKAESSGKSHRGCPSPSPSEVRVETSAMVDPKGSHPRPSRKPVDSVPLSRGKELLQKAIRNQGSISGGGSGGSSSLLTNARSWGVRILHVDEMMMHVQQLSLASLCVKKQQPKKPEGTCPAAESRTRKVARLKAPFLKIEDESRKFRPFHHQFKSFPEISFLGPKDASPFEAPTTLGSMHHTRESKDGEPSPRSAAHTMPRRKKGYCECCQEAFEELHVHLQSAQHRSFALEAHLYAEVDRIIAQLSHSFADIPFQAGLPRWSGSPASDCDPLCPETLHPHQPSHPRAASPRIRKEDSCQASVTQGRAAGQQRWTESLDGVMGPPASHTCVSATTLLPALPKGSREQGCLCPCPASFTQSHLVTSLALLPGEWSPAEDMPLHPSQENSFAPADIPVKGPLLFPEARPWLMSARCWVRPFPFVTWGCLIPHDTTPLHEEVSPCPCLRLGYLYLLLTQSLWCRVRVPSLSTAGPIPRTSHPCTLAFPSYLNDHDLGHLCQAKPQGWNTPQPFLHCGFLAVDSG
partner: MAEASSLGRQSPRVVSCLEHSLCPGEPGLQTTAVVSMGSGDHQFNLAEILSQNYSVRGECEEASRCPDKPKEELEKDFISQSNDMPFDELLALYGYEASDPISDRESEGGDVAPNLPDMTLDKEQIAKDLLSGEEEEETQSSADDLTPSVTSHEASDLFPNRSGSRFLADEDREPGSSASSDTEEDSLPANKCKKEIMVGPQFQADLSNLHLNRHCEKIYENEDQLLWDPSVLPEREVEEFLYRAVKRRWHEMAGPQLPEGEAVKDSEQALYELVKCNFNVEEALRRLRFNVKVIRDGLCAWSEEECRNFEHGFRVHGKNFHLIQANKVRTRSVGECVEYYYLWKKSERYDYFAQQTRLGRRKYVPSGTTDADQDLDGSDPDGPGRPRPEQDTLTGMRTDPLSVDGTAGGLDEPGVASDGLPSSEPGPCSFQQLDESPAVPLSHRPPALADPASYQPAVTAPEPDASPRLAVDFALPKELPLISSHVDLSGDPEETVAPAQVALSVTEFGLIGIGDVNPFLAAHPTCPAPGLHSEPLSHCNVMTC
B3: Isoform 1 of Mothers against decapentaplegic homolog 3 (Homo sapiens), P84022-1 (parent)
chain: MSSILPFTPPIVKRLLGWKKGEQNGQEEKWCEKAVKSLVKKLKKTGQLDELEKAITTQNVNTKCITIPRSLDGRLQVSHRKGLPHVIYCRLWRWPDLHSHHELRAMELCEFAFNMKKDEVCVNPYHYQRVETPVLPPVLVPRHTEIPAEFPPLDDYSHSIPENTNFPAGIEPQSNIPETPPPGYLSEDGETSDHQMNHSMDAGSPNLSPNPMSPAHNNLDLQPVTYCEPAFWCSISYYELNQRVGETFHASQPSMTVDGFTDPSNSERFCLGLLSNVNRNAAVELTRRHIGRGVRLYYIGGEVFAECLSDSAIFVQSPNCNQRYGWHPATVCKIPPGCNLKIFNNQEFAALLAQSVNQGFEAVYQLTRMCTIRMSFVKGWGAEYRRQTVTSTPCWIELHLNGPLQWLDKVLTQMGSPSIRCSSVS
B4: Methylthioribulose-1-phosphate dehydratase (Homo sapiens), Q96GX9 (parent)
chain: MSGCDAREGDCCSRRCGAQDKEHPRYLIPELCKQFYHLGWVTGTGGGISLKHGDEIYIAPSGVQKERIQPEDMFVCDINEKDISGPSPSKKLKKSQCTPLFMNAYTMRGAGAVIHTHSKAAVMATLLFPGREFKITHQEMIKGIKKCTSGGYYRYDDMLVVPIIENTPEEKDLKDRMAHAMNEYPDSCAVLVRRHGVYVWGETWEKAKTMCECYDYLFDIAVSMKKVGLDPSQLPVGENGIV
partner: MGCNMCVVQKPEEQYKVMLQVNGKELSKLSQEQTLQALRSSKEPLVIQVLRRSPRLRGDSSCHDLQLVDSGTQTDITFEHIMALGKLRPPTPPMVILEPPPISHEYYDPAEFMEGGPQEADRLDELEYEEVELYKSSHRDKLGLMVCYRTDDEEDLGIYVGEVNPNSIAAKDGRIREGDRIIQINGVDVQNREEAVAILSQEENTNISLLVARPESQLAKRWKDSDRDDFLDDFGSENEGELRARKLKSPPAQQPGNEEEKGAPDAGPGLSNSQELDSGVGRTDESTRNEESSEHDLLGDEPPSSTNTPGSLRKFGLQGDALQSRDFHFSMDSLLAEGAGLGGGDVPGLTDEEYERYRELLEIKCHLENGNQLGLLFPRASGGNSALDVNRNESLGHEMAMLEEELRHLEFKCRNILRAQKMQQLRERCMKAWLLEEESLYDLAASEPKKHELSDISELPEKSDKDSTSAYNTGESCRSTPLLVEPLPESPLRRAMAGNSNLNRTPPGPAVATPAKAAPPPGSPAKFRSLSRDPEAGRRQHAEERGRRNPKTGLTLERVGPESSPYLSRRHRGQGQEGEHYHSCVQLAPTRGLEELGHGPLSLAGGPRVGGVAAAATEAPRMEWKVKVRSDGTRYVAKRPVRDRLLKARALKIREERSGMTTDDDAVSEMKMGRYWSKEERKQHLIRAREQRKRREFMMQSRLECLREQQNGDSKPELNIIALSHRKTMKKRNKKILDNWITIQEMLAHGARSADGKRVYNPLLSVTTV
B5: DCC-interacting protein 13-alpha (Homo sapiens), Q9UKG1 (parent)
chain: MPGIDKLPIEETLEDSPQTRSLLGVFEEDATAISNYMNQLYQAMHRIYDAQNELSAATHLTSKLLKEYEKQRFPLGGDDEVMSSTLQQFSKVIDELSSCHAVLSTQLADAMMFPITQFKERDLKEILTLKEVFQIASNDHDAAINRYSRLSKKRENDKVKYEVTEDVYTSRKKQHQTMMHYFCALNTLQYKKKIALLEPLLGYMQAQISFFKMGSENLNEQLEEFLANIGTSVQNVRREMDSDIETMQQTIEDLEVASDPLYVPDPDPTKFPVNRNLTRKAGYLNARNKTGLVSSTWDRQFYFTQGGNLMSQARGDVAGGLAMDIDNCSVMAVDCEDRRYCFQITSFDGKKSSILQAESKKDHEEWICTINNISKQIYLSENPEETAARVNQSALEAVTPSPSFQQRHESLRPAAGQSRPPTARTSSSGSLGSESTNLAALSLDSLVAPDTPIQFDIISPVCEDQPGQAKAFGQGGRRTNPFGESGGSTKSETEDSILHQLFIVRFLGSMEVKSDDHPDVVYETMRQILAARAIHNIFRMTESHLLVTCDCLKLIDPQTQVTRLTFPLPCVVLYATHQENKRLFGFVLRTSSGRSESNLSSVCYIFESNNEGEKICDSVGLAKQIALHAELDRRASEKQKEIERVKEKQQKELNKQKQIEKDLEEQSRLIAASSRPNQASSEGQFVVLSSSQSEESDLGEGGKKRESEA
B6: Proteasome subunit beta type-1 (Homo sapiens), P20618 (parent)
chain: MLSSTAMYSAPGRDLGMEPHRAAGPLQLRFSPYVFNGGTILAIAGEDFAIVASDTRLSEGFSIHTRDSPKCYKLTDKTVIGCSGFHGDCLTLTKIIEARLKMYKHSNNKAMTTGAIAAMLSTILYSRRFFPYYVYNIIGGLDEEGKGAVYSFDPVGSYQRDSFKAGGSASAMLQPLLDNQVGFKNMQNVEHVPLSLDRAMRLVKDVFISAAERDVYTGDALRICIVTKEGIREETVSLRKD

Variants of: B1
Details: with snf8_human SNF8, Q96H20

effect of a mutation on the interaction | Variant
with no effect | I76V

Variants of: B2
Details: with mier2_human MIER2, Q8N344

effect of a mutation on the interaction | Variant
with no effect | L199S

Variants of: B3
Details: with smad4_human SMAD4, Q13485
smad4_human SMAD4, Q13485, sequence (Q13485 whole entry): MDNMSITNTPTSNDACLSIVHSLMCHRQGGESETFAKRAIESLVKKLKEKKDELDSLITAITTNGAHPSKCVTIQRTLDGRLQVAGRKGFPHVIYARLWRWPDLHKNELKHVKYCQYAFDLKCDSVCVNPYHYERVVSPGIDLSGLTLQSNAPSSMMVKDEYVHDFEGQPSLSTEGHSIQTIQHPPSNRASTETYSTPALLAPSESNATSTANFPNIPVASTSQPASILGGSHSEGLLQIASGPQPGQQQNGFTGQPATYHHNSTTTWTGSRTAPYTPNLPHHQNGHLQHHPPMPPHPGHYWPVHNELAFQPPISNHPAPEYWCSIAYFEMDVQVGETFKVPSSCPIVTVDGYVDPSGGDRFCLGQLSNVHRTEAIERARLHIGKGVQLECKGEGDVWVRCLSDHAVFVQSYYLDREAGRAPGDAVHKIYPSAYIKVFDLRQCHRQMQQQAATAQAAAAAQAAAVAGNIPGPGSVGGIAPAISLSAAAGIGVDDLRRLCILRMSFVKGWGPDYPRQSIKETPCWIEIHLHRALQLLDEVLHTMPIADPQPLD

effect of a mutation on the interaction | Variant
with no effect | P393L

Variants of: B3
Details: with smad4_human SMAD4, Q13485
Remark: another data set of the same source

effect of a mutation on the interaction | Variant
with no effect | I170V

Variants of: B3
Details: with ccd33_human CCDC33, Q8N5R6
ccd33_human CCDC33, Q8N5R6, sequence (Q8N5R6 whole entry): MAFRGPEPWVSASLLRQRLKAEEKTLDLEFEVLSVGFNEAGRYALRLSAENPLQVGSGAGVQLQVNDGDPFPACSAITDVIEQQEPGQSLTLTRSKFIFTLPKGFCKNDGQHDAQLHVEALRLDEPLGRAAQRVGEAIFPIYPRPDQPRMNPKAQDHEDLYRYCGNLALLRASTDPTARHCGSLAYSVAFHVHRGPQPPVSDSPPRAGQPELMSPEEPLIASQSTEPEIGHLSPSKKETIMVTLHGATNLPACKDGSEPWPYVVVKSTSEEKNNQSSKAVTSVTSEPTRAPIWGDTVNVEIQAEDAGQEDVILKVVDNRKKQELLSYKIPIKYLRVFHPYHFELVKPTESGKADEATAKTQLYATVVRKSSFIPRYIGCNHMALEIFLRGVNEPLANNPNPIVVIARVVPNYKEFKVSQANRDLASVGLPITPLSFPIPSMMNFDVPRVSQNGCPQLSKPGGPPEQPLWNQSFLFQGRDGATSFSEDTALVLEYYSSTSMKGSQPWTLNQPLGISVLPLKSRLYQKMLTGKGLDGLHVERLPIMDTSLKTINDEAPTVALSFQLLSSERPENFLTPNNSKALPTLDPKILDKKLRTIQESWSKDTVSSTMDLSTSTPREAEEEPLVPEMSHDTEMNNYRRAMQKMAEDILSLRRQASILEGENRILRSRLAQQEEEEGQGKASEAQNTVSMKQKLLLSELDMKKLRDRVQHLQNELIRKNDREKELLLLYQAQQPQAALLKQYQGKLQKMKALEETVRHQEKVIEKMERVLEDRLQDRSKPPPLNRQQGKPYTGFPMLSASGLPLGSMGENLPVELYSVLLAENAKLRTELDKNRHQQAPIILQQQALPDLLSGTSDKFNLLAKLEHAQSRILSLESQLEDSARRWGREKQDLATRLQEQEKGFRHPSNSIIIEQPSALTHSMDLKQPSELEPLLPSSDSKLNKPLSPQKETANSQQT

effect of a mutation on the interaction | Variant
with no effect | I170V

Variants of: B4
Details: with pdzd4_human PDZD4, Q76G19

effect of a mutation on the interaction | Variant
with no effect | G111A
with no effect | M181V

Variants of: B5
Details: with traf2_human TRAF2, Q12933
traf2_human TRAF2, Q12933, sequence (Q12933 whole entry): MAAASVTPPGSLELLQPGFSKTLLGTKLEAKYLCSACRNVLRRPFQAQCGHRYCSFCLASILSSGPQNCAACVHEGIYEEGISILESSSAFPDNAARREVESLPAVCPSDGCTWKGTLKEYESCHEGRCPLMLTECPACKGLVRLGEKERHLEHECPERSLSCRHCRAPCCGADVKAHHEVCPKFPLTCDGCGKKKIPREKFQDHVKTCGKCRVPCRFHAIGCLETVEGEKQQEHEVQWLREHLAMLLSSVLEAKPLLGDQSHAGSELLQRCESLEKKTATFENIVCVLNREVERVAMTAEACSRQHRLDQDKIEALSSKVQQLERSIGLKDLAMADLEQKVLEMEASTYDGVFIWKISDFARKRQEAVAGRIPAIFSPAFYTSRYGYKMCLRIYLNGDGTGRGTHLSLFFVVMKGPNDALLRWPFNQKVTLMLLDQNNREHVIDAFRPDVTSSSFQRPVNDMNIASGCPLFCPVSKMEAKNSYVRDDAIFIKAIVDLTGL

effect of a mutation on the interaction | Variant
with no effect | E67G
with no effect | E643Q

Variants of: B5
Details: with maga9_human MAGEA9, P43362
maga9_human MAGEA9, P43362, sequence (P43362 whole entry): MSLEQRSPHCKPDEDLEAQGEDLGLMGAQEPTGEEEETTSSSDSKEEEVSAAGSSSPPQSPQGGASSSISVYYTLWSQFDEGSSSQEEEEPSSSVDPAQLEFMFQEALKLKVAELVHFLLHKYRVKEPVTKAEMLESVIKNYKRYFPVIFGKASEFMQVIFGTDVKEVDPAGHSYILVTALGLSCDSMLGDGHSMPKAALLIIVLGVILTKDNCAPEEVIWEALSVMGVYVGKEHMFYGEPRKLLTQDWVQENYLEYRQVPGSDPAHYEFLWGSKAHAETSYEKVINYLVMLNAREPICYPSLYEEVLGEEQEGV

effect of a mutation on the interaction | Variant
with no effect | E67G
with no effect | E643Q

Variants of: B6
Details: with KRT15, P19012
KRT15, P19012, sequence (P19012 whole entry): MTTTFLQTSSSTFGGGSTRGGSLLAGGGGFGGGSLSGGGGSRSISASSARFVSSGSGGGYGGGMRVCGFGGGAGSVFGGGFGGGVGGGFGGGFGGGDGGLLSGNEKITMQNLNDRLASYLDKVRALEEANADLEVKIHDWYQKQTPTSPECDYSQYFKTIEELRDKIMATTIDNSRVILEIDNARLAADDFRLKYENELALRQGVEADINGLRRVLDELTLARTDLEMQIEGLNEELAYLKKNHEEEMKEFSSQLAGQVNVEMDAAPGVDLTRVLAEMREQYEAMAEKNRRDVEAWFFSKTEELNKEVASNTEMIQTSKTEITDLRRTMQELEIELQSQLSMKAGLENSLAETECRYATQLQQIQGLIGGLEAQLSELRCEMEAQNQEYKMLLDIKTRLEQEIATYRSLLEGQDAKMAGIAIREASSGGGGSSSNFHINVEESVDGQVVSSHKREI

effect of a mutation on the interaction | Variant
with no effect | P11A

Variants of: B6
Details: with traf1_human TRAF1, Q13077
traf1_human TRAF1, Q13077, sequence (Q13077 whole entry): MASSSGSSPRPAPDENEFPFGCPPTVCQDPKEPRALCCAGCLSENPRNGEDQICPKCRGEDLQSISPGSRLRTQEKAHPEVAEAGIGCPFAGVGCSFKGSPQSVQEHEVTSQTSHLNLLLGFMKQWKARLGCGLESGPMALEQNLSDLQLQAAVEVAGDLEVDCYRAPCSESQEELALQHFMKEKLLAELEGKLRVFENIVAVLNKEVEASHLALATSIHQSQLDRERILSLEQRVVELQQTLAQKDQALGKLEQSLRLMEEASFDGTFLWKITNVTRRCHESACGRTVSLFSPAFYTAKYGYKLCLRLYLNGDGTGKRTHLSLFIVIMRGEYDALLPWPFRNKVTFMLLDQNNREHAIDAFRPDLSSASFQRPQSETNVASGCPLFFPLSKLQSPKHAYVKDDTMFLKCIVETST

effect of a mutation on the interaction | Variant
with no effect | P11A
